From patent publication US20240309103A1 (Regeneron, published 2024) come the findings set out here.

Experiment [1] concerns the target T1, human NPR1 extracellular domain expressed with a C-terminal mouse IgG2a (hNPR1-mFc) (human).
T1 construct: also called hNPR1-Fc; human NPR1 dimer
T1 chain: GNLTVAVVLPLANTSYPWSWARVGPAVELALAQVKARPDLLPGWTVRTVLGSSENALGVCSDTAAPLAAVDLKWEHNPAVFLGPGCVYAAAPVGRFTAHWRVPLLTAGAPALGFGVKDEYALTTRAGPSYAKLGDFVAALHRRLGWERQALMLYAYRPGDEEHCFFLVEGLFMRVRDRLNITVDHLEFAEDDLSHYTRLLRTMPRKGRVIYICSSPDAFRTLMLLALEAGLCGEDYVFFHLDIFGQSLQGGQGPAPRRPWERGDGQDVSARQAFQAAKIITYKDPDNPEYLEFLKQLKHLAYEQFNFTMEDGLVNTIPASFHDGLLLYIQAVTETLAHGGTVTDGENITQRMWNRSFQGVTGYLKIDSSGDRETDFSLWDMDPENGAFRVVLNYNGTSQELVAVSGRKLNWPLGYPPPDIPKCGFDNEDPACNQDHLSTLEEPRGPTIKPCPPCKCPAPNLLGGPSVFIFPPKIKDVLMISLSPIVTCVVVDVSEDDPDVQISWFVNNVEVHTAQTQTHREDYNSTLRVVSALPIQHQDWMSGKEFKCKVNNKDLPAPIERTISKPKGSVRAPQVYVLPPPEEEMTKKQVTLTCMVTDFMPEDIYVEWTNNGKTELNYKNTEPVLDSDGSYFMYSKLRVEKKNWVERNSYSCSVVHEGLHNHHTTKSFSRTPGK
As to the kind of experiment: SPR, mAb captured, 37 C. A digest of the protocol:
(§1)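 Biacore 4000 SPR with anti-NPR1 mAbs captured on CM5 chip via amine-coupled mouse anti-human Fc mAb or goat anti-human Fcγ polyclonal; NPR1 reagents flowed as analytes.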
On the technique in general: Surface plasmon resonance follows binding to a sensor surface in real time, without labels.

The target of experiment [2] is mouse NPR1 extracellular domain expressed with a C-terminal myc-myc-hexahistidine (mNPR1-MMH) (mouse, UniProt P18293 29-469). Description: SPR, mAb captured, 37 C. The method, boiled down:
as §1

Experiment [3] deals with T2, human NPR1 extracellular domain expressed with a C-terminal myc-myc-hexahistidine (hNPR1-MMH) (human, UniProt P16066 33-473).
T2 construct: also called hNPR.mmh; monomeric human NPR1
As to the kind of experiment: SPR, mAb captured, 37 C. A digest of the protocol: as §1

The target in experiment [4] is T3, monkey NPR1 extracellular domain expressed with a C-terminal myc-myc-hexahistidine (mfNPR1-MMH) (monkey, UniProt P16066 33-473 (human entry)).
T3 construct: also called monomeric monkey NPR1
T3 chain: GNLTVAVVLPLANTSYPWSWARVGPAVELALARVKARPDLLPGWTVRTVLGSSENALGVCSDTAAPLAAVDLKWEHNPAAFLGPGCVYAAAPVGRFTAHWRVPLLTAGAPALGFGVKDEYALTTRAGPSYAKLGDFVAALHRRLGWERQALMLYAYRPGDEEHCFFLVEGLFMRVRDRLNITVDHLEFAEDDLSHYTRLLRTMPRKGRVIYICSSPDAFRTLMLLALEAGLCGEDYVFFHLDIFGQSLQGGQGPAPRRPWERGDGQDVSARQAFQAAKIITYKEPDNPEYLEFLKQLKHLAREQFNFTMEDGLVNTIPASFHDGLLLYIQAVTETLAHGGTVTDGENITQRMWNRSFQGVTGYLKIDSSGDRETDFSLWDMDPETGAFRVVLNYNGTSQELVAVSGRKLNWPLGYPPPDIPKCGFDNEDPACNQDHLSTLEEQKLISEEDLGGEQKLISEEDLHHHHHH
As to the kind of experiment: SPR, mAb captured, 37 C. A digest of the protocol:
as §1

Experiment [5] deals with T4, mouse NPR1 extracellular domain expressed with a C-terminal mouse IgG2a (mNPR1-mFc) (mouse).
T4 chain: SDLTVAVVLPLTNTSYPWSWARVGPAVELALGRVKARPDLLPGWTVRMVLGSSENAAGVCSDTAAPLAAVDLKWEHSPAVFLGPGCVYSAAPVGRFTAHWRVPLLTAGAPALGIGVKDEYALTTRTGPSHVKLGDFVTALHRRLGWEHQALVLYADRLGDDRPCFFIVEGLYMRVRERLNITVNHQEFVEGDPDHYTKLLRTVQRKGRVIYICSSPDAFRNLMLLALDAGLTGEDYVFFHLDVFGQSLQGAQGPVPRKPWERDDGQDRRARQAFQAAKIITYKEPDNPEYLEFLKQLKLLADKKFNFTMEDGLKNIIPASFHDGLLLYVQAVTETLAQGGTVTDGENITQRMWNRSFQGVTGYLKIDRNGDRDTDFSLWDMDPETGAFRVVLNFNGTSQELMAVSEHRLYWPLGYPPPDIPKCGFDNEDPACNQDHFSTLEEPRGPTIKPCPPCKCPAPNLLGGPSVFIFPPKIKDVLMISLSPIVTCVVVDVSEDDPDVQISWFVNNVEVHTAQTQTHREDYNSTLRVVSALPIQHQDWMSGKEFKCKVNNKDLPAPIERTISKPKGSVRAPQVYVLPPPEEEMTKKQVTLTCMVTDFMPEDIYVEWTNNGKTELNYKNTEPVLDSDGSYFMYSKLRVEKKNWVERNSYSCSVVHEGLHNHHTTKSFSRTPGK
As to the kind of experiment: SPR, Tables 21 to 26. A digest of the protocol: as §1

Sequence of mouse NPR1 extracellular domain expressed with a C-terminal myc-myc-hexahistidine (mNPR1-MMH) (P18293 other isoform, or with tags, fused parts or gaps): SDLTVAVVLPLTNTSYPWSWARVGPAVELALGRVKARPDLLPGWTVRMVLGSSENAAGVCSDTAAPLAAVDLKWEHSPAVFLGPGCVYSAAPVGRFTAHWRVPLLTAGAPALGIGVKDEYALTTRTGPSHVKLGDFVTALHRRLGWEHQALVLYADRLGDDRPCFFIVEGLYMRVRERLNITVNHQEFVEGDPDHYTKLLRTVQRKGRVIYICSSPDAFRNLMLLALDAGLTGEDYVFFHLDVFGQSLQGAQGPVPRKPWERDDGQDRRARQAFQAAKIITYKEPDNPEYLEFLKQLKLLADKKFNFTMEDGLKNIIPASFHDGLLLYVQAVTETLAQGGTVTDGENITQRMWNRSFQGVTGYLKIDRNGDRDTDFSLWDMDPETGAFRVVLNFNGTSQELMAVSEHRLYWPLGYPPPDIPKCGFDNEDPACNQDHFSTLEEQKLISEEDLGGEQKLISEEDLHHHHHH

B1: mAb22035 (antibody, V domains shown)
VH: EVQLVESGGGLVQPGRSLRLSCAASGFTFDDYAMHWVRQAPGKGLEWVSGISWNSGTIGYADSVKGRFTMSRDNAKNSLYLQMNSLRPEDTALYYCAKDMGVSLALWGAFDIWGQGTMVTVSS
VL: DIQMTQSPSSLSASVGDKVTITCRASQNIRTYLNWYQQKPGKAPKVLISTASSLQSGVPSRFSGSGSGTDFTLTISSLQPEDFAVFYCQQSFGIPRTFGQGTKVEIK
Turning to B1, in experiment [1], the “100 nM Ag Bound (RU)” value was 257 RU, the Kd stood at 0.2 nM, the koff is 0.000127 s⁻¹ and the kon is 636000 M⁻¹ s⁻¹. Besides, the t½ in experiment [1] was 90.8 min. The “100 nM Ag Bound (RU)” value in experiment [2] worked out at 1 RU. In experiment [3], the “100 nM Ag Bound (RU)” value worked out at 284 RU; the affinity, expressed as Kd, was 1.3 nM; the koff stood at 0.000312 s⁻¹; the kon was 240000 M⁻¹ s⁻¹. For the same molecule, in experiment [3], the t½ came to 37.1 min. For the same molecule, in experiment [4], the “100 nM Ag Bound (RU)” value amounted to 319 RU, binding was put at a Kd of 0.702 nM, the koff was found to be 0.000374 s⁻¹ and the kon is 532000 M⁻¹ s⁻¹. The molecule also displayed a t½ in experiment [4] of 30.9 min. Further, the binding result in experiment [5] is “no binding”.

B2: mAb22033 (antibody, V domains shown)
VH: QVQLVQSGAEVKKPGASVTVSCKASGYTFTDYYMHWVRQAPGQGLEWMGWIKPNSGGTNSAQRFQGRITMTWDTSISTAYMELSRLRSDDTAVYYCSRGGPVMNYYYYYGMDVWGQGTTVTVSS
VL: NIQMTQSPSSLSASVGDRVTITCRASQSIDSYLNWYQQKPGKAPKLLIYVASSLQSGVPSRFSGSGSGKDFTLTISSLQPEDFATYYCQQSYSIPTFGQGTRLEIK
As to B2, in experiment [1], the “100 nM Ag Bound (RU)” value amounted to 75 RU, the Kd was 3.56 nM, the koff came out at 0.000131 s⁻¹ and the kon was 36800 M⁻¹ s⁻¹. The t½ in experiment [1] was determined as 88.2 min. Moreover, the “100 nM Ag Bound (RU)” value in experiment [2] turned out to be 1 RU. For the same molecule, in experiment [3], the “100 nM Ag Bound (RU)” value came to 52 RU, binding was put at a Kd of 136 nM, the koff came to 0.000819 s⁻¹ and the kon was found to be 6030 M⁻¹ s⁻¹. Moreover, in experiment [3], the t½ turned out to be 14.1 min. In experiment [4], the “100 nM Ag Bound (RU)” value came to 131 RU; the affinity, expressed as Kd, was 27.8 nM; the koff is 0.000697 s⁻¹; the kon is 25100 M⁻¹ s⁻¹. The molecule further displayed a t½ in experiment [4] of 16.6 min. Also, the binding result in experiment [5] is reported as “no binding”.

By Kd is commonly meant the free concentration of one partner at which half of the binding sites on the other are occupied at equilibrium, for simple one-to-one binding. As a reminder, the koff is a measure of how fast the partners let go of each other. In general, kon refers to a measure of how fast the partners come together. As usually defined, the t½ is the time in which the quantity being followed falls by half.
